Each block holds one binder with its values, some of them ahead of it.
Target: full-length human Tau (Tau441; 2N4R), recombinant (UniProt P10636 1-758)
Test: SPR (Biacore); 25°C

full-length human Tau (Tau441; 2N4R), recombinant, sequence (P10636 other isoform, or with tags, fused parts or gaps): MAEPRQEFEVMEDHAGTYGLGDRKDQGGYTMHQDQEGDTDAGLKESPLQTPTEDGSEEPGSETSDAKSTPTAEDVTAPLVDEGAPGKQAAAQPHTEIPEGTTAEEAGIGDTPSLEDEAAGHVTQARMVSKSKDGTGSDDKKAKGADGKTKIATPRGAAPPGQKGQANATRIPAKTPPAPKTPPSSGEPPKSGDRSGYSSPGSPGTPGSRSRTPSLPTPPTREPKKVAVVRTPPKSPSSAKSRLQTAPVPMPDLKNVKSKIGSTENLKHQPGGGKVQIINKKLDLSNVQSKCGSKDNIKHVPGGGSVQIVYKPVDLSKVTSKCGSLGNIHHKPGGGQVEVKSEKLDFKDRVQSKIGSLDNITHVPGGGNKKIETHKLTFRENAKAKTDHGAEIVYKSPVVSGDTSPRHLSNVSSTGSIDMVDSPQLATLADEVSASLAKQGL

- Kd: 0.0946 nM
B1: chimeric IgG clone 1G7 (antibody, V domains shown)
VH: EVQLQQSGAEVVRPGASVKLSCTTSGFNIKDSLMHWLKQRPEQGLEWIGWIDPEDGETKYAPKFQDKATITADTSSNTAYLQLSSLTSGDTAIYYCARRDWEGPWGQGTLVTVSA
VL: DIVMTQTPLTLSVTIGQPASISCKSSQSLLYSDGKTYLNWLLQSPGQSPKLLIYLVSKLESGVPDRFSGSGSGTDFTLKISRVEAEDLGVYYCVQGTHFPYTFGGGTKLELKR

- Kd: 0.155 nM
B2: chimeric IgG clone 1A5 (antibody, V domains shown)
VH: EVQLQQSGAELVRPGASVKLSCTASGFNIKDSLIHWVKQRPEQGLEWIGWIDPEDGETKYAPKFQDKATKTADTSSNTAYLQLSSLTSEDTAIYYCASGEWDYWGQGTSVTVSS
VL: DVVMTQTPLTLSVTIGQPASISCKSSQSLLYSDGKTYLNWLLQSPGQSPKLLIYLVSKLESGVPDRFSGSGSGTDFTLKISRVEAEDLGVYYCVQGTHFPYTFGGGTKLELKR
